Experimental data taken from patent US9193963B2, “Mutant endoglucanase” (Toray Industries, Inc., priority 2011, dated 2015).

B1: EGAc Wild-type: Acidthermus cellulolyticus-derived endoglucanase, SEQ ID NO: 31, parent endoglucanase (protein)
chain: MPRALRRVPGSRVMLRVGVVVAVLALVAALANLAVPRPARAAGGGYWHTSGREILDANNVPVRIAGINWFGFETCNYVVHGLWSRDYRSMLDQIKSLGYNTIRLPYSDDILKPGTMPNSINFYQMNQDLQGLTSLQVMDKIVAYAGQIGLRIILDRHRPDCSGQSALWYTSSVSEATWISDLQALAQRYKGNPTVVGFDLHNEPHDPACWGCGDPSIDWRLAAERAGNAVLSVNPNLLIFVEGVQSYNGDSYWWGGNLQGAGQYPVVLNVPNRLVYSAHDYATSVYPQTWFSDPTFPNNMPGIWNKNWGYLFNQNIAPVWLGEFGTTLQSTTDQTWLKTLVQYLRPTAQYGADSFQWTFWSWNPDSGDTGGILKDDWQTVDTVKDGYLAPIKSSIFDPVGASASPSSQPSPSVSPSPSPSPSASRTPTPTPTPTASPTPTLTPTATPTPTASPTPSPTAASGARCTASYQVNSDWGNGFTVTVAVTNSGSVATKTWTVSWTFGGNQTITNSWNAAVTQNGQSVTARNMSYNNVIQPGQNTTFGFQASYTGSNAAPTVACAAS
modifications: Acidthermus cellulolyticus EGAc
B2: EGPa Wild-type: Pyrococcus abyssi-derived endoglucanase, SEQ ID NO: 25, parent endoglucanase (protein)
chain: MEIKLFCVFIVFIILFSPFVIALSYPDVNYTAENGIIFVQNVTTGEKKPLYLHGVSWFGFELKDHVVYGLDKRNWKDILKDVKRLGFNAIRLPFCSESIRPDTRPSPERINYELNPDLKNLTSLEIMEKIIEYANSIGLYILLDYHRIGCEEIEPLWYTENYSEEQYIKDWIFLAKRFGKYPNVIGADIKNEPHGEAGWGTGDERDFRLFAEKVGREILKVAPHWLIFVEGTQYTHVPNIDEIIEKKGWWTFWGENLMGVKDYPVRLPRGKVVYSPHVYGPSVYMMDYFKSPDFPNNMPIIWETHFGYLTDLNYTLVIGEWGGNYEGLDKVWQDAFVKWLIKKKIYNFFYWCLNPESGDTGGIFLDDWKTVNWEKMRVIYRLIKAANPEFEEPLYIILKTNATTSILGVGERIRIYWYTNGKVIDSNFAHSSEGEMNITVTKSMTLYIIVKKGNQTLRKELKLYVIGGNYGSNISTTQLVTPKKGGERISTSLKLAISLLFILLFVWYLLREKH
modifications: Pyrococcus abyssi EGPa
B3: EGPa Mutant: mutant EGPa, SEQ ID NO: 26; residue corresponding to 273rd tryptophan substituted with alanine (protein)
chain: MEIKLFCVFIVFIILFSPFVIALSYPDVNYTAENGIIFVQNVTTGEKKPLYLHGVSWFGFELKDHVVYGLDKRNWKDILKDVKRLGFNAIRLPFCSESIRPDTRPSPERINYELNPDLKNLTSLEIMEKIIEYANSIGLYILLDYHRIGCEEIEPLWYTENYSEEQYIKDWIFLAKRFGKYPNVIGADIKNEPHGEAGWGTGDERDFRLFAEKVGREILKVAPHWLIFVEGTQYTHVPNIDEIIEKKGWWTFAGENLMGVKDYPVRLPRGKVVYSPHVYGPSVYMMDYFKSPDFPNNMPIIWETHFGYLTDLNYTLVIGEWGGNYEGLDKVWQDAFVKWLIKKKIYNFFYWCLNPESGDTGGIFLDDWKTVNWEKMRVIYRLIKAANPEFEEPLYIILKTNATTSILGVGERIRIYWYTNGKVIDSNFAHSSEGEMNITVTKSMTLYIIVKKGNQTLRKELKLYVIGGNYGSNISTTQLVTPKKGGERISTSLKLAISLLFILLFVWYLLREKH
modifications: Pyrococcus abyssi EGPa W253A
notes: residue corresponding to 273rd tryptophan substituted with alanine

Experiments:
[1] = Inhibition experiment with ferulic acid: degradation of phosphoric acid swollen cellulose; format: biochemical; details: enzyme 0.5 μM, 1 hour, 50° C., parent at 0 mM = 100%
Description: (§6) This substance was diluted using buffer and water to obtain a 2 wt % mixture so that the final concentration of sodium acetate was 50 mM (pH 5.2). This was designated as phosphoric acid swollen cellulose and used for the following examples.
The activity of the wild-type and the mutant endoglucanases to degrade phosphoric acid swollen cellulose was measured in the presence of ferulic acid. 1% phosphoric acid swollen cellulose/50 mM acetate buffer (pH 5.2) was used as a substrate. Ferulic acid (Sigma Aldrich) was added at final concentrations of 0, 5, 10, and 15 mM. The enzymes prepared in Reference Example 1 and Example 2 were each added at a final concentration of 0.5 μM, followed by 1 hour of enzymatic reaction at 50° C.

[2] = Inhibition experiment with vanillin: degradation of phosphoric acid swollen cellulose; format: biochemical; details: enzyme 0.5 μM, 1 hour, 50° C., parent at 0 mM = 100%
Description: as §6
The activity of the wild-type and the mutant endoglucanases to degrade phosphoric acid swollen cellulose in the presence of vanillin was measured. 1% phosphoric acid swollen cellulose/50 mM acetate buffer (pH 5.2) was used as a substrate. Vanillin (Sigma Aldrich) was added at final concentrations of 0, 5, 10, and 15 mM. The enzymes prepared in Reference Example 1 and Example 2 were added at a final concentration of 0.5 μM, followed by 1 hour of enzymatic reaction at 50° C.

[3] = Saccharification of lignocellulose 2 with Trichoderma reesei culture solution and endoglucanase; format: biochemical, Rice straw; details: Lignocellulose 2, 24 hours; cellulase 1.0 mg/mL + endoglucanase 0.1 mg/mL + β-glucosidase (Novozyme 188) 0.01 mg/mL
Description: (§1) Rice straw was used as cellulose. Cellulose was immersed in a 1% aqueous sulfuric acid solution, and then autoclaved for 30 minutes at 150° C. (Nitto Koatsu Co. Ltd.). After treatment, the resultant was subjected to solid-liquid separation into an aqueous sulfuric acid solution (hereinafter, referred to as “dilute-sulfuric-acid-treated solution”) and cellulose treated with sulfuric acid. Next, the cellulose treated with sulfuric acid was mixed and agitated with the dilute-sulfuric-acid-treated solution so that the solid content concentration was 10 wt %. Then the mixture was adjusted to around pH 5 using sodium hydroxide. The resultant was used as lignocellulose 2 for the following examples.
(§2) The changes in the amount of glucose generated when the enzyme composition had been caused to act on lignocellulose substrates were compared. The substrates were prepared by suspending 5 wt % lignocelluloses (1 to 3) (prepared in Reference Example 3) in 50 mM acetate buffer (pH5.2). Reactions were performed at 50° C. for 24 hours. The concentrations of the generated glucose were measured after adequate sampling. As a filamentous bacterium-derived cellulase mixture, commercially available Trichoderma reesei-derived cellulase (Celluclast, Sigma) was used. As endoglucanases, the mutant endoglucanases prepared in Example 2 and the wild-type endoglucanases prepared in Reference Example 1 were separately used. The following quantities of enzymes were added: 1.0 mg/mL cellulase, and 0.1 mg/mL endoglucanase (in an amount one tenth that of the cellulase).
(§3) Lignocelluloses (1-3) prepared in Reference Example 3 were used as substrates. The Trichoderma reesei culture solution prepared in Reference Example 4 was used as a filamentous bacterium-derived cellulase mixture. Lignocelluloses (1-3) were hydrolyzed in a manner similar to that in Example 7, except for the quantities of the enzymes added: cellulase (1.0 mg/mL); endoglucanase (0.1 mg/mL (in an amount one tenth that of the cellulase); and β-glucosidase (Novozyme 188) (0.01 mg/mL (in an amount one hundredth that of the cellulase).

[4] = Saccharification of lignocellulose 2 with Celluclast and endoglucanase; format: biochemical, Rice straw; details: 5 wt % Lignocellulose 2, pH 5.2, 50° C., 24 hours; 1.0 mg/mL cellulase + 0.1 mg/mL endoglucanase
Description: as §1, §2

[5] = Saccharification of lignocellulose 3 with Celluclast and endoglucanase; format: biochemical, Rice straw; details: 5 wt % Lignocellulose 3, pH 5.2, 50° C., 24 hours; 1.0 mg/mL cellulase + 0.1 mg/mL endoglucanase
Description: (§4) Rice straw was used as cellulose. The cellulose was immersed in water, and then autoclaved with agitation at 180° C. for 20 minutes (Nitto Koatsu Co. Ltd.). Pressure at this time was 10 MPa. After treatment, a solution component (hereinafter, referred to as “hydrothermally treated solution”) and the treated biomass component were subjected to solid-liquid separation by centrifugation (3000 G). The thus treated biomass component was used as lignocellulose 3 for the following examples.
as §2

[6] = Saccharification of lignocellulose 1 with Celluclast and endoglucanase; format: biochemical, Rice straw; details: 5 wt % Lignocellulose 1, pH 5.2, 50° C., 24 hours; 1.0 mg/mL cellulase + 0.1 mg/mL endoglucanase
Description: (§5) Rice straw was used as cellulose. The cellulose was added to a small reactor (Taiatsu Techno Corporation, TVS-N2 (30 ml)), and then cooled with liquid nitrogen. An ammonia gas was fed to the reactor, thereby completely immersing the sample in the liquid ammonia. The reactor was closed using its lid, and then left to stand at room temperature for 15 minutes. Subsequently, treatment was performed for 1 hour in an oil bath at 150° C. After treatment, the reactor was removed from the oil bath, an ammonia gas leak was immediately performed within a draft chamber. The reactor was vacuumed using a vacuum pump to 10 Pa for drying. The resultant was used as lignocellulose 1 in the following examples.
as §2

[7] = Saccharification of lignocellulose 3 with Trichoderma reesei culture solution and endoglucanase; format: biochemical, Rice straw; details: Lignocellulose 3, 24 hours; cellulase 1.0 mg/mL + endoglucanase 0.1 mg/mL + β-glucosidase (Novozyme 188) 0.01 mg/mL
Description: as §4, §2, §3

[8] = Saccharification of lignocellulose 1 with Trichoderma reesei culture solution and endoglucanase; format: biochemical, Rice straw; details: Lignocellulose 1, 24 hours; cellulase 1.0 mg/mL + endoglucanase 0.1 mg/mL + β-glucosidase (Novozyme 188) 0.01 mg/mL
Description: as §5, §2, §3

[9] = Activity to degrade phosphoric acid swollen cellulose; format: biochemical; details: 1% phosphoric acid swollen cellulose, pH 5.2, enzyme 0.5 μM, 1 hour, 50° C.; glucose generated by each parent endoglucanase = 100%
Description: The term “identity” refers to the percentage of amino acid residues identical to and amino acid residues analogous to the other amino acid residues in all the amino acid residues overlapped when an optimum alignment is performed by introducing gaps or no gaps into two amino acid sequences and then aligning the two amino acid sequences. Such an identity can be found using a method known by persons skilled in the art, sequence analysis software, and the like (a known algorithm such as BLAST or FASTA). The term “endoglucanase activity” is as defined above and can be determined by adding an enzyme solution to a substrate solution of phosphoric acid swollen cellulose that has been dissolved in 50 mM acetic acid-sodium acetate buffer (pH 5.2) or the like, performing 1 hour of reaction at 30° C. to 85° C., stopping the reaction by changing the pH if necessary, and then determining the concentration of glucose in the reaction solution using a glucose determination kit, for example.
The mutants obtained in Comparative Example 1 were compared in terms of activity by a technique similar to that in Example 3. The concentration (g/L) of glucose generated by each parent endoglucanase under the above reaction conditions was determined to be 100%.

Molecule	Relative activity to degrade phosphoric acid swollen cellulose ([1]; ferulic acid 0 mM) [%]	Relative activity to degrade phosphoric acid swollen cellulose ([1]; ferulic acid 5 mM) [%]	Relative activity to degrade phosphoric acid swollen cellulose ([1]; ferulic acid 10 mM) [%]	Relative activity to degrade phosphoric acid swollen cellulose ([1]; ferulic acid 15 mM) [%]	Relative activity to degrade phosphoric acid swollen cellulose ([2]; vanillin 0 mM) [%]	Relative activity to degrade phosphoric acid swollen cellulose ([2]; vanillin 5 mM) [%]	Relative activity to degrade phosphoric acid swollen cellulose ([2]; vanillin 10 mM) [%]	Relative activity to degrade phosphoric acid swollen cellulose ([2]; vanillin 15 mM) [%]	Concentration of glucose generated, Culture solution + Wild-type [3] [g/L]	Concentration of glucose generated, Celluclast + Wild-type [4] [g/L]	Concentration of glucose generated, Celluclast + Wild-type [5] [g/L]	Concentration of glucose generated, Celluclast + Wild-type [6] [g/L]	Concentration of glucose generated, Culture solution + Wild-type [7] [g/L]	Concentration of glucose generated, Culture solution + Wild-type [8] [g/L]	Relative activity [9] [%]	further results
B1	100	65	60	55	100	50	45	40	8	11	11	11	8	8	100	
B2	100	60	50	50	100	40	40	40	9	12	11	12	8	9	100	
B3	100	95	90	90	100	90	90	90							100	Concentration of glucose generated, Culture solution + Mutant [3]: 13 g/L; Concentration of glucose generated, Celluclast + Mutant [4]: 16 g/L; Concentration of glucose generated, Celluclast + Mutant [5]: 15 g/L; Concentration of glucose generated, Celluclast + Mutant [6]: 14 g/L; Concentration of glucose generated, Culture solution + Mutant [7]: 12 g/L; Concentration of glucose generated, Culture solution + Mutant [8]: 11 g/L
